Test results from patent US20250304644A1, “PEPTIDES TRIPLE AGONISTS OF GIP, GLP-1 AND GLP-2” (BAINAN BIOTECH APS, priority 2021, published 2025).
*1 amine or outer side, *2 acyl side, *3 side chain or, on linkers, in order; H or OH if unused. Where no end group is shown, it is not given here. Side-chain parts run from the residue outwards. [ ]: non-standard residue; d: D form. The star is where a group is joined. C18 diacid = O=C(O)CCCCCCCCCCCCCCCCC(=O)*; γGlu = O=C(O)[C@H](CCC(=O)[*:2])N[*:1]; AEEA = NCCOCCOCC(=O)O; Aib = CC(C)(N)C(=O)O

Columns and labels:
Test in all cases: cell-based or functional assay
[1] = biological target: T1, human GIPR (glucose-dependent insulinotropic polypeptide receptor) (human, UniProt P48546 22-466)
T1 sequence (looked up): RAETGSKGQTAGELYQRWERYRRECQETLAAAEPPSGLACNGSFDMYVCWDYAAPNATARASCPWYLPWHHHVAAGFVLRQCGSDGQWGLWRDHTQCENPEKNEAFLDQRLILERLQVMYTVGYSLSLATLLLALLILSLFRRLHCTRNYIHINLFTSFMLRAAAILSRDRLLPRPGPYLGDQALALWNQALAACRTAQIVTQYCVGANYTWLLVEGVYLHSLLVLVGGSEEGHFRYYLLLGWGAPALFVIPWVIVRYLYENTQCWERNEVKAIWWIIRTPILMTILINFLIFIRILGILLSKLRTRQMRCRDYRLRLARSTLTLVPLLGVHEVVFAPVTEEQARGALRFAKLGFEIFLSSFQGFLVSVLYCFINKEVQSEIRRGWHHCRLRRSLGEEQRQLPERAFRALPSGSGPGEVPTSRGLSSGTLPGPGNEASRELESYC

[2] = biological target: T2, human GLP-2R (glucagon-like peptide-2 receptor) (human, UniProt O95838 1-553)
T2 sequence (looked up): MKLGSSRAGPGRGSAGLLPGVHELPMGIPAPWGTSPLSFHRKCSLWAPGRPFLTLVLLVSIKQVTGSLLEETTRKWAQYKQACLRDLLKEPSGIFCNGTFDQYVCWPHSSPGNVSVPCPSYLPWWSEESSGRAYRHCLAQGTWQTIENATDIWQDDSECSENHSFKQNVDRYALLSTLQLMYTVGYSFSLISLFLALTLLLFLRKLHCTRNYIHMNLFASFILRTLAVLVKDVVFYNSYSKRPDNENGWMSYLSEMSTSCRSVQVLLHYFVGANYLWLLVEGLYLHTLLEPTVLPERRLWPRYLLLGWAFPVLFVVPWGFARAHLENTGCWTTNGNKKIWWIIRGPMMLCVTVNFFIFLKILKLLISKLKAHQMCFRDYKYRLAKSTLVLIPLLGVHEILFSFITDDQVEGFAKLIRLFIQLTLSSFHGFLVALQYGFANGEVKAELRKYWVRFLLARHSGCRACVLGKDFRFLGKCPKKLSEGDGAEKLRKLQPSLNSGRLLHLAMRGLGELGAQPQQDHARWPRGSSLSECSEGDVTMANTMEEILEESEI

[3] = biological target: human GLP-1R (glucagon-like peptide-1 receptor) (human, UniProt P43220 24-463)
human SNAP-tagged GLP-1R = human SNAP-tagged GLP-1R (human, UniProt P43220 24-463, SNAP tag labeled with Tag-Lite SNAP-Lumi4-Tb)
human SNAP-tagged GLP-2R = biological target: T3, human SNAP-tagged GLP-2R (human, UniProt O95838 1-553, SNAP tag labeled with Tag-Lite SNAP-Lumi4-Tb)
T3 sequence (looked up): T2 sequence (looked up)

[4] = biological target: T4, Human N-terminally SNAP-tagged GIPR (human, UniProt P48546 22-466, SNAP tag labeled with Tag-Lite SNAP-Lumi4-Tb)
T4 sequence (looked up): T1 sequence (looked up)

[5] = biological target: human glucagon receptor (GCGR) (human, UniProt P47871 26-477, limits assumed)
Sequence of human glucagon receptor (GCGR) (P47871 26-477 limits assumed): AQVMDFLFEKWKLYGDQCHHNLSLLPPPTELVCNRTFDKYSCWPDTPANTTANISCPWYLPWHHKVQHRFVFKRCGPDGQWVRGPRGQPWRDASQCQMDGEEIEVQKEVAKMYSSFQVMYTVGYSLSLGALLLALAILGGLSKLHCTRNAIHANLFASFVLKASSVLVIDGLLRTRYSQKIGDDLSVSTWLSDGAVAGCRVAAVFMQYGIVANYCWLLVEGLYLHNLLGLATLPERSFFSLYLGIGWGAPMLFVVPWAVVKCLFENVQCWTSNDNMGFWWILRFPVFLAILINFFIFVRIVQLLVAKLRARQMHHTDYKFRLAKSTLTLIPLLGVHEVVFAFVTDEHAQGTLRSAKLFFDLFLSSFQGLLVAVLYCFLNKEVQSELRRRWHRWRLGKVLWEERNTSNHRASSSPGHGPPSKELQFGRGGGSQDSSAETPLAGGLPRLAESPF

With H[Aib]DGTFISDYSTILDALAARDFINWLIQTKITK([AEEA-AEEA-γGlu-C18 diacid])-OH [Compound 28] as the binder, how does the “EC50 (nM) GIPR” value [1] read?
The value was 0.071 nM.

What about the “Efficacy GIPR” value [1] of the same binder?
Its value is 119.

What about the “pEC50 GIPR” value [1] of the same binder?
The value was 10.2.

And the “Efficacy GLP-2R” value [2]?
The value was 89.

And the “logEC50 GLP-2R” value [2]?
Its value is 8.7.

And the “EC50 (nM) GLP-1R” value [3]?
Its value is 3.98 nM.

And the “Efficacy GLP-1R” value [3]?
The value was 102.

And the “logEC50 GLP-1R” value [3]?
The value was 8.4.

And the “Absolute hGLP-1R internalization (AUC)” value (human SNAP-tagged GLP-1R)?
Its value is 0.96 AUC.

And the “Relative hGLP-1R internalization (%)” value (human SNAP-tagged GLP-1R)?
The value was 1.14%.

And the “Absolute hGLP-2R internalization (AUC)” value (human SNAP-tagged GLP-2R)?
Its value is 12 AUC.

And the “Relative hGLP-2R internalization (%)” value (human SNAP-tagged GLP-2R)?
The value was 24.8%.

And the “Absolute hGIPR internalization (AUC)” value [4]?
Its value is 21.7 AUC.

And the “Relative hGIPR internalization (%)” value [4]?
Its value is 59%.

What about the “potency in Gs activation, measured as cAMP accumulation (-p Log EC50)” value [5] of the same binder?
The value was < 7 -p Log EC50.
